Source: the supplement of paper PMC10899765

tested on: MCF10A; assay: one-nucleolus phenotype percent effect (relative to siNT 0% and siNOL11 100%); higher = more cells with one nucleolus (ribosome biogenesis inhibition); settings: 20 nM; 72 h
Description: (§1)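 After 72 h, cells were fixed and stained with Hoechst and anti-fibrillarin, and nucleoli per nucleus were counted with CellProfiler. Values are plate-adjusted percent effect for the one-nucleolus and 5+ nucleoli phenotypes, normalised to siNT (0%) and to the positive controls siNOL11 or siKIF11 (100%), as the mean of biological triplicates. Percent viability is the nuclei count relative to siNT.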

Compared with AGUUCUUCAGUGGCAAGCUUUA [hsa-miR-22-5p], “CAAAACUGGCAAUUACUUUUGC [hsa-miR-548a-3p]” is lower in “one-nucleolus phenotype percent effect” value: 3.93% for the first, -17.2% for the second.

Compared with “AAAGGAUUCUGCUGUCGGUCCCACU [hsa-miR-541-5p]”, UAAGGAGGGGGAUGAGGGG [hsa-miR-6891-5p] is lower in “one-nucleolus phenotype percent effect” value: 12.6% for the first, -7.18% for the second.

Compared with “CUGCAGGCAGAAGUGGGGCUGACA [hsa-miR-6511b-5p]”, CUGGGAGAAGAGUGGUGAAGA [hsa-miR-6788-5p] is lower in “one-nucleolus phenotype percent effect” value: 39.6% for the first, 10% for the second.

Compared with “ACUCGCAUCCUUCCCUUGGCAG [hsa-miR-6814-3p]”, AGAGGUAGGUGUGGAAGAA [hsa-miR-4458] is higher in “one-nucleolus phenotype percent effect” value: -25.3% for the first, -20.7% for the second.

First: CAAAAACCGCAAUUACUUUUGCA [hsa-miR-548h-3p]
Second: UUGGAGGCGUGGGUUUU [hsa-miR-4443]
The “one-nucleolus phenotype percent effect” value of the first is lower: -6.67% for the first, 61.2% for the second.

First: GGGGAACUGUAGAUGAAAAGGC [hsa-miR-8059]
Second: UCCAGGGAGACAGUGUGUGAG [hsa-miR-7113-5p]
The “one-nucleolus phenotype percent effect” value of the first is lower: -28.4% for the first, 23.5% for the second.

Compared with AAUCAUACAGGGACAUCCAGUU [hsa-miR-487a], “AAGAAGAGACUGAGUCAUCGAAU [hsa-miR-5197-3p]” is higher in “one-nucleolus phenotype percent effect” value: -6.53% for the first, -5.79% for the second.

Going from GGGAGUCUACAGCAGGG [hsa-miR-4294] to GUGAGACUUCUCUCCCUUCAG [hsa-miR-6864-3p], the “one-nucleolus phenotype percent effect” value falls from 24% to 14.5%.

Compared with UACUCAAAAAGCUGUCAGUCA [hsa-miR-888-5p], UAGAUAAAAUAUUGGUACCUG [hsa-miR-577] is lower in “one-nucleolus phenotype percent effect” value: -13.4% for the first, -23.7% for the second.

First: UAUAGGGAUUGGAGCCGUGGCG [hsa-miR-135a-3p]
Second: UGAGUGACAGGGGAAAUGGGGA [hsa-miR-1236-5p]
The “one-nucleolus phenotype percent effect” value of the first is higher: 13.5% for the first, -0.0652% for the second.

Going from CAAAGUGCCUCCCUUUAGAGUG [hsa-miR-519d] to “GUAUACACCUGAUAUGUGUAUG [hsa-miR-4789-5p]”, the “one-nucleolus phenotype percent effect” value rises from -20.2% to -15.8%.

Compared with “AGGCCUGUGGCUCCUCCCUCAG [hsa-miR-6735-3p]”, CACUAGAUUGUGAGCUCCUGGA [hsa-miR-28-3p] is lower in “one-nucleolus phenotype percent effect” value: -1.31% for the first, -9.21% for the second.

Compared with “UCUGUCAUUUCUUUAGGCCAAUA [hsa-miR-215-3p]”, AUAGGCACCAAAAAGCAACAA [hsa-miR-4423-3p] is lower in “one-nucleolus phenotype percent effect” value: 2.4% for the first, 0.708% for the second.

First: CUGGUUUCACAUGGUGGCUUAG [hsa-miR-29b-2-5p]
Second: GGAGAUGGAGGUUGCAGUG [hsa-miR-1273f]
The “one-nucleolus phenotype percent effect” value of the first is lower: -3.17% for the first, 20.3% for the second.

Compared with UUUGUUCGUUCGGCUCGCGUGA [hsa-miR-375], CCCCGGGGAGCCCGGCG [hsa-miR-4532] is lower in “one-nucleolus phenotype percent effect” value: 0.601% for the first, -24.8% for the second.

First: CUUCUGAUCAAGAUUUGUGGUG [hsa-miR-4762-3p]
Second: UGUGCUUGCUCGUCCCGCCCGCA [hsa-miR-636]
The “one-nucleolus phenotype percent effect” value of the first is higher: 18.9% for the first, 5.25% for the second.

Compared with CAACAAAUCACAGUCUGCCAUA [hsa-miR-7-1-3p], UUAAUUUUUUGUUUCGGUCACU [hsa-miR-4775] is lower in “one-nucleolus phenotype percent effect” value: -2.83% for the first, -18.6% for the second.

Going from “CUUCUGCCUGCAUUCUACUCCCAG [hsa-miR-6738-3p]” to “CACUGUUUCACCACUGGCUCUU [hsa-miR-4676-3p]”, the “one-nucleolus phenotype percent effect” value falls from 12.5% to -8.83%.

Going from GAAAGAGAGCUGAGUGUG [hsa-miR-4311] to “UCACCAGCCCUGUGUUCCCUAG [hsa-miR-1226-3p]”, the “one-nucleolus phenotype percent effect” value rises from 31.2% to 33.5%.

Compared with “AGGUUGGGAUCGGUUGCAAUGCU [hsa-miR-92a-1-5p]”, “ACCUUGCCUUGCUGCCCGGGCC [hsa-miR-1915-5p]” is higher in “one-nucleolus phenotype percent effect” value: 4.93% for the first, 39.7% for the second.

Compared with “UCACCUGAGCUCCCGUGCCUG [hsa-miR-3622b-3p]”, UCCAGCUCGGUGGCAC [hsa-miR-4267] is higher in “one-nucleolus phenotype percent effect” value: -20.9% for the first, -0.0012% for the second.

Going from GGGGAGCUGUGGAAGCAGUA [hsa-miR-920] to UAGUGAGUUAGAGAUGCAGAGCC [hsa-miR-3174], the “one-nucleolus phenotype percent effect” value rises from -6.81% to 12.5%.

First: CCCUGAGACCCUAACCUUAA [hsa-miR-4324]
Second: CCCCUGGGCCGGCCUUGG [hsa-miR-4292]
The “one-nucleolus phenotype percent effect” value of the first is lower: -27% for the first, 4.18% for the second.

First: UCUAAAGACUAGACUUCGCUAUG [hsa-miR-4744]
Second: AACCCCUAAGGCAACUGGAUGG [hsa-miR-5195-5p]
The “one-nucleolus phenotype percent effect” value of the first is lower: -22% for the first, -2.47% for the second.

Going from AGGGUGUUUCUCUCAUCUCU [hsa-miR-609] to UGACUUCUACCUCUUCCAAAG [hsa-miR-6505-3p], the “one-nucleolus phenotype percent effect” value rises from -18.6% to 46.6%.

First: CUCUAGAGGGAAGCACUUUCUC [hsa-miR-518f-5p]
Second: AUAUACCUGUUCGGUCUCUUUA [hsa-miR-3144-3p]
The “one-nucleolus phenotype percent effect” value of the first is higher: 8.67% for the first, -10.5% for the second.

Compared with “AGGCACCAGCCAGGCAUUGCUCAGC [hsa-miR-593-5p]”, GGAUUCCUGGAAAUACUGUUCU [hsa-miR-145-3p] is lower in “one-nucleolus phenotype percent effect” value: 12.3% for the first, 9.95% for the second.

First: CGGCUCUGGGUCUGUGGGGA [hsa-miR-760]
Second: AGUGGGAGGACAGGAGGCAGGU [hsa-miR-6778-5p]
The “one-nucleolus phenotype percent effect” value of the first is higher: 7.07% for the first, -2.52% for the second.

First: UCAAAACUGAGGGGCAUUUUCU [hsa-miR-1323]
Second: UCACCUGGCUGGCCCGCCCAG [hsa-miR-6765-3p]
The “one-nucleolus phenotype percent effect” value of the first is higher: -19.4% for the first, -20.5% for the second.

For “AGCGUGGGAUGUCCAUGAAGUCAG [hsa-miR-6853-5p]”, the “one-nucleolus phenotype percent effect” value was -26.6%.

tested on: MCF10A; assay: 5+ nucleoli phenotype percent effect (relative to siNT 0% and siKIF11 100%); higher = more cells with five or more nucleoli; settings: 20 nM; 72 h
Description: as §1

Going from AGUUCUUCAGUGGCAAGCUUUA [hsa-miR-22-5p] to “CAAAACUGGCAAUUACUUUUGC [hsa-miR-548a-3p]”, the “5+ nucleoli phenotype percent effect” value rises from 24% to 45.7%.

First: AAAGGAUUCUGCUGUCGGUCCCACU [hsa-miR-541-5p]
Second: UAAGGAGGGGGAUGAGGGG [hsa-miR-6891-5p]
The “5+ nucleoli phenotype percent effect” value of the first is lower: -28.2% for the first, -18.8% for the second.

First: CUGCAGGCAGAAGUGGGGCUGACA [hsa-miR-6511b-5p]
Second: CUGGGAGAAGAGUGGUGAAGA [hsa-miR-6788-5p]
The “5+ nucleoli phenotype percent effect” value of the first is lower: -9.29% for the first, -4.55% for the second.

Compared with “ACUCGCAUCCUUCCCUUGGCAG [hsa-miR-6814-3p]”, AGAGGUAGGUGUGGAAGAA [hsa-miR-4458] is higher in “5+ nucleoli phenotype percent effect” value: 32.1% for the first, 36.9% for the second.

First: CAAAAACCGCAAUUACUUUUGCA [hsa-miR-548h-3p]
Second: UUGGAGGCGUGGGUUUU [hsa-miR-4443]
The “5+ nucleoli phenotype percent effect” value of the first is higher: -11% for the first, -29.8% for the second.

First: GGGGAACUGUAGAUGAAAAGGC [hsa-miR-8059]
Second: UCCAGGGAGACAGUGUGUGAG [hsa-miR-7113-5p]
The “5+ nucleoli phenotype percent effect” value of the first is higher: 34.6% for the first, -2.05% for the second.

Compared with AAUCAUACAGGGACAUCCAGUU [hsa-miR-487a], “AAGAAGAGACUGAGUCAUCGAAU [hsa-miR-5197-3p]” is higher in “5+ nucleoli phenotype percent effect” value: -7.13% for the first, 26.1% for the second.

First: GGGAGUCUACAGCAGGG [hsa-miR-4294]
Second: GUGAGACUUCUCUCCCUUCAG [hsa-miR-6864-3p]
The “5+ nucleoli phenotype percent effect” value of the first is lower: -26.3% for the first, -9.96% for the second.

First: UACUCAAAAAGCUGUCAGUCA [hsa-miR-888-5p]
Second: UAGAUAAAAUAUUGGUACCUG [hsa-miR-577]
The “5+ nucleoli phenotype percent effect” value of the first is lower: 11.8% for the first, 29.6% for the second.

First: UAUAGGGAUUGGAGCCGUGGCG [hsa-miR-135a-3p]
Second: UGAGUGACAGGGGAAAUGGGGA [hsa-miR-1236-5p]
The “5+ nucleoli phenotype percent effect” value of the first is higher: 4.73% for the first, -4.72% for the second.

Compared with CAAAGUGCCUCCCUUUAGAGUG [hsa-miR-519d], “GUAUACACCUGAUAUGUGUAUG [hsa-miR-4789-5p]” is lower in “5+ nucleoli phenotype percent effect” value: 62.9% for the first, 17.3% for the second.

First: AGGCCUGUGGCUCCUCCCUCAG [hsa-miR-6735-3p]
Second: CACUAGAUUGUGAGCUCCUGGA [hsa-miR-28-3p]
The “5+ nucleoli phenotype percent effect” value of the first is higher: 15.7% for the first, 12.4% for the second.

Going from “UCUGUCAUUUCUUUAGGCCAAUA [hsa-miR-215-3p]” to AUAGGCACCAAAAAGCAACAA [hsa-miR-4423-3p], the “5+ nucleoli phenotype percent effect” value falls from -6.58% to -11.3%.

Going from “CUGGUUUCACAUGGUGGCUUAG [hsa-miR-29b-2-5p]” to GGAGAUGGAGGUUGCAGUG [hsa-miR-1273f], the “5+ nucleoli phenotype percent effect” value falls from 7.64% to 1.46%.

UUUGUUCGUUCGGCUCGCGUGA [hsa-miR-375] was tested, and the “5+ nucleoli phenotype percent effect” value was 5.82%.
